# Values of other authors, collected in PMC7488126.
# Experiments:
# CD48 (Homo sapiens) = CD48 (Homo sapiens) (UniProt P09326)
# CD112 (Homo sapiens) = CD112 (Homo sapiens) (UniProt Q92692)
# CD155 (Homo sapiens) = CD155 (Homo sapiens) (UniProt P15151)
# B7H6 (Homo sapiens) = B7H6 (Homo sapiens) (UniProt Q68D85)
# Chain of UniProt Q68D85 (Q68D85 25-262): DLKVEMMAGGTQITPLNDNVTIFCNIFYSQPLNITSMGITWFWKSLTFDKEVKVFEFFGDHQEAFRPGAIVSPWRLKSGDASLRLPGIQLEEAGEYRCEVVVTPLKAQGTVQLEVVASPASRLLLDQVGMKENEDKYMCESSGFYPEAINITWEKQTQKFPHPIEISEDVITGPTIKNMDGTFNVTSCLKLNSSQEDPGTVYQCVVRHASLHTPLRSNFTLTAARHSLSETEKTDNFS
# Chain of UniProt Q92692 (Q92692 32-360): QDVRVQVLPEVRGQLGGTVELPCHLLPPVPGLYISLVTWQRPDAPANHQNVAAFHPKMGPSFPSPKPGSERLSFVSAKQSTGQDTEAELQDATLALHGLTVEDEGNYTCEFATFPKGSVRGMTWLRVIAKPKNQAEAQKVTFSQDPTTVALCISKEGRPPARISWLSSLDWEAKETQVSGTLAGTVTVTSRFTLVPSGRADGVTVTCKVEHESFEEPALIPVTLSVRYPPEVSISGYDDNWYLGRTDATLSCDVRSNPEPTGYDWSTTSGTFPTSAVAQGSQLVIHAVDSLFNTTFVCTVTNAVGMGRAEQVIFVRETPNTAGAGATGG
# Chain of UniProt P15151 (P15151 21-343): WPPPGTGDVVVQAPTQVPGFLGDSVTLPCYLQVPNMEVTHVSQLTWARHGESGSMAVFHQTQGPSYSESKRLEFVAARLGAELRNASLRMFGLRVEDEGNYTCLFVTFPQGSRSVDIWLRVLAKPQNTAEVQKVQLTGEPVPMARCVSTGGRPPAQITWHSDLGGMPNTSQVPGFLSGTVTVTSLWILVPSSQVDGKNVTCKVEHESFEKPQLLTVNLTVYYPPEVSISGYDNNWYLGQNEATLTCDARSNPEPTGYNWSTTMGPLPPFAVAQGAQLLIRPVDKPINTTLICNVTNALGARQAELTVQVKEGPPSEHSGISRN
# Chain of UniProt P09326 (P09326 27-220): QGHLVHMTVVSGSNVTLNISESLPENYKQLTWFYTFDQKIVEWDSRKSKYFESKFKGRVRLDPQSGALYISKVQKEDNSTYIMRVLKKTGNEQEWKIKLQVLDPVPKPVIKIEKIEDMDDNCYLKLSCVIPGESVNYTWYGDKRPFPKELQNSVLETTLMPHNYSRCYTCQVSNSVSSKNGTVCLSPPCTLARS
substance,measurement,setting,value
2B4 ECD (from UniProt Q9BZW8),Kd,CD48 (Homo sapiens),8000 nM
DNAM-1 (from UniProt Q15762),Kd,CD112 (Homo sapiens),310 nM
same,Kd,CD155 (Homo sapiens),230 nM
NKp30 Ig variable domain (from UniProt O14931),Kd,B7H6 (Homo sapiens),1000 nM
